B1: E3 ubiquitin-protein ligase NEDD4-like (Homo sapiens), Q96PU5-5 (parent)
chain: MATGLGEPVYGLSEDEGESRILRVKVVSGIDLAKKDIFGASDPYVKLSLYVADENRELALVQTKTIKKTLNPKWNEEFYFRVNPSNHRLLFEVFDENRLTRDDFLGQVDVPLSHLPTEDPTMERPYTFKDFLLRPRSHKSRVKGFLRLKMAYMPKNGGQDEENSDQRDDMEHGWEVVDSNDSASQHQEELPPPPLPPGWEEKVDNLGRTYYVNHNNRTTQWHRPSLMDVSSESDNNIRQINQEAAHRRFRSRRHISEDLEPEPSEGGDVPEPWETISEEVNIAGDSLGLALPPPPASPGSRTSPQELSEELSRRLQITPDSNGEQFSSLIQREPSSRLRSCSVTDAVAEQGHLPPPSVAYVHTTPGLPSGWEERKDAKGRTYYVNHNNRTTTWTRPIMQLAEDGASGSATNSNNHLIEPQIRRPRSLSSPTVTLSAPLEGAKDSPVRRAVKDTLSNPQSPQPSPYNSPKPQHKVTQSFLPPGWEMRIAPNGRPFFIDHNTKTTTWEDPRLKFPVHMRSKTSLNPNDLGPLPPGWEERIHLDGRTFYIDHNSKITQWEDPRLQNPAITGPAVPYSREFKQKYDYFRKKLKKPADIPNRFEMKLHRNNIFEESYRRIMSVKRPDVLKARLWIEFESEKGLDYGGVAREWFFLLSKEMFNPYYGLFEYSATDNYTLQINPNSGLCNEDHLSYFTFIGRVAGLAVFHGKLLDGFFIRPFYKMMLGKQITLNDMESVDSEYYNSLKWILENDPTELDLMFCIDEENFGQTYQVDLKPNGSEIMVTNENKREYIDLVIQWRFVNRVQKQMNAFLEGFTELLPIDLIKIFDENELELLMCGLGDVDVNDWRQHSIYKNGYCPNHPVIQWFWKAVLLMDAEKRIRLLQFVTGTSRVPMNGFAELYGSNGPQLFTIEQWGSPEKLPRAHTCFNRLDLPPYETFEDLREKLLMAVENAQGFEGVD
B2: Mothers against decapentaplegic homolog 3 (Homo sapiens), P84022 (parent)
chain: MSSILPFTPPIVKRLLGWKKGEQNGQEEKWCEKAVKSLVKKLKKTGQLDELEKAITTQNVNTKCITIPRSLDGRLQVSHRKGLPHVIYCRLWRWPDLHSHHELRAMELCEFAFNMKKDEVCVNPYHYQRVETPVLPPVLVPRHTEIPAEFPPLDDYSHSIPENTNFPAGIEPQSNIPETPPPGYLSEDGETSDHQMNHSMDAGSPNLSPNPMSPAHNNLDLQPVTYCEPAFWCSISYYELNQRVGETFHASQPSMTVDGFTDPSNSERFCLGLLSNVNRNAAVELTRRHIGRGVRLYYIGGEVFAECLSDSAIFVQSPNCNQRYGWHPATVCKIPPGCNLKIFNNQEFAALLAQSVNQGFEAVYQLTRMCTIRMSFVKGWGAEYRRQTVTSTPCWIELHLNGPLQWLDKVLTQMGSPSIRCSSVS
B3: E3 ubiquitin-protein ligase SMURF1 (Homo sapiens), Q9HCE7-1 (parent)
chain: MSNPGTRRNGSSIKIRLTVLCAKNLAKKDFFRLPDPFAKIVVDGSGQCHSTDTVKNTLDPKWNQHYDLYVGKTDSITISVWNHKKIHKKQGAGFLGCVRLLSNAISRLKDTGYQRLDLCKLNPSDTDAVRGQIVVSLQTRDRIGTGGSVVDCRGLLENEGTVYEDSGPGRPLSCFMEEPAPYTDSTGAAAGGGNCRFVESPSQDQRLQAQRLRNPDVRGSLQTPQNRPHGHQSPELPEGYEQRTTVQGQVYFLHTQTGVSTWHDPRIPSPSGTIPGGDAAFLYEFLLQGHTSEPRDLNSVNCDELGPLPPGWEVRSTVSGRIYFVDHNNRTTQFTDPRLHHIMNHQCQLKEPSQPLPLPSEGSLEDEELPAQRYERDLVQKLKVLRHELSLQQPQAGHCRIEVSREEIFEESYRQIMKMRPKDLKKRLMVKFRGEEGLDYGGVAREWLYLLCHEMLNPYYGLFQYSTDNIYMLQINPDSSINPDHLSYFHFVGRIMGLAVFHGHYINGGFTVPFYKQLLGKPIQLSDLESVDPELHKSLVWILENDITPVLDHTFCVEHNAFGRILQHELKPNGRNVPVTEENKKEYVRLYVNWRFMRGIEAQFLALQKGFNELIPQHLLKPFDQKELELIIGGLDKIDLNDWKSNTRLKHCVADSNIVRWFWQAVETFDEERRARLLQFVTGSTRVPLQGFKALQGSTGAAGPRLFTIHLIDANTDNLPKAHTCFNRIDIPPYESYEKLYEKLLTAVEETCGFAVE
B4: Mothers against decapentaplegic homolog 7 (Homo sapiens), O15105 (parent)
chain: MFRTKRSALVRRLWRSRAPGGEDEEEGAGGGGGGGELRGEGATDSRAHGAGGGGPGRAGCCLGKAVRGAKGHHHPHPPAAGAGAAGGAEADLKALTHSVLKKLKERQLELLLQAVESRGGTRTACLLLPGRLDCRLGPGAPAGAQPAQPPSSYSLPLLLCKVFRWPDLRHSSEVKRLCCCESYGKINPELVCCNPHHLSRLCELESPPPPYSRYPMDFLKPTADCPDAVPSSAETGGTNYLAPGGLSDSQLLLEPGDRSHWCVVAYWEEKTRVGRLYCVQEPSLDIFYDLPQGNGFCLGQLNSDNKSQLVQKVRSKIGCGIQLTREVDGVWVYNRSSYPIFIKSATLDNPDSRTLLVHKVFPGFSIKAFDYEKAYSLQRPNDHEFMQQPWTGFTVQISFVKGWGQCYTRQFISSCPCWLEVIFNSR

Variants of: B1
Details: with smad7_human SMAD7, O15105

Q: How did the “effect of a mutation on the interaction” value turn out when K378E was run?
A: The value was “decreasing interaction strength”.

Q: Which “effect of a mutation on the interaction” value does the source give for K378E;R380E here?
A: The value was “decreasing interaction strength”.

Q: How did the “effect of a mutation on the interaction” value turn out when R380E was run?
A: Its value is “decreasing interaction strength”.

Variants of: B2
Details: with NEDD4L

Q: With T179A as the variant, how does the “effect of a mutation on the interaction” value read?
A: Its value is “disrupting interaction strength”.

Q: Which “effect of a mutation on the interaction” value does the source give for P181A;P182A here?
A: The value was “disrupting interaction strength”.

Variants of: B3
Details: with smad7_human SMAD7, O15105

Q: For R243A, which “effect of a mutation on the interaction” value is on record?
A: The value was “decreasing interaction strength”.

Q: For R243E, which “effect of a mutation on the interaction” value is on record?
A: Its value is “decreasing interaction strength”.

Q: Q247E;Q249E was tested. Which “effect of a mutation on the interaction” value did it give?
A: The value was “decreasing interaction strength”.

Q: For Q249E, which “effect of a mutation on the interaction” value is on record?
A: Its value is “decreasing interaction strength”.

Variants of: B4
Details: with NEDD4L

Q: P208A;P209A was tested. Which “effect of a mutation on the interaction” value did it give?
A: The value was “disrupting interaction strength”.

Reference: IntAct's records for PubMed 22921829
